Where two headings read alike, the source gives them in different places.
Tests used:
[1] = target: T1, human IL-17A (human, UniProt Q16552 24-155); assay: cell-based or functional assay
[2] = target: T2, mouse IL-17A (mouse, UniProt Q62386 26-158, limits assumed); assay: SPR (Biacore 3000), antibody captured by anti-Fc, antigen in solution
T2 construct: Purified recombinant protein in SPR; also called MuIL-17A; murine IL-17A
T2 sequence (looked up): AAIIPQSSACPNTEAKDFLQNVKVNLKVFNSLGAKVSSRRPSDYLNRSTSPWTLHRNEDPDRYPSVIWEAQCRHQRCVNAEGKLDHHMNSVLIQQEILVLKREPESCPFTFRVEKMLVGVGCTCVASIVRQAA
Description: (§1) The binding of antibodies to purified recombinant human, cyno, rat, mouse, rabbit IL-17 and human IL-17A/F were determined by surface plasmon resonance-based measurements with a Biacore® 3000 instrument (Biacore® AB, Uppsala, Sweden) using running HBS-EP (10 mM HEPES [pH 7.4], 150 mM NaCl, 3 mM EDTA, and 0.005% surfactant P20) at 25° C. […] Approximately 5000 RU of goat anti-mouse or anti-human IgG (Fcγ) fragment specific polyclonal antibody (Pierce Biotechnology Inc, Rockford, Ill.) diluted in 10 mM sodium acetate (pH 4.5) was directly immobilized across a CM5 research grade biosensor chip using a standard amine coupling kit according to manufacturer's instructions and procedures at 25 μg/ml. Unreacted moieties on the biosensor surface were blocked with ethanolamine. Modified carboxymethyl dextran surface in flowcell 2 and 4 was used as a reaction surface. Unmodified carboxymethyl dextran without goat anti-mouse or anti-human IgG in flow cell 1 and 3 was used as the reference surface. For kinetic analysis, rate equations derived from the 1:1 Langmuir binding model were fitted simultaneously to association and dissociation phases of all eight injections (using global fit analysis) with the use of Biaevaluation 4.0.1 software. Purified antibodies were diluted in HEPES-buffered saline for capture across goat anti-mouse or anti-human IgG specific reaction surfaces. Antibodies to be captured as a ligand (25 μg/ml) were injected over reaction matrices at a flow rate of 5 μl/min. The association and dissociation rate constants, kon (unit M-1s-1) and koff (unit s-1) were determined under a continuous flow rate of 25 μl/min. Rate constants were derived by making kinetic binding measurements at ten different antigen concentrations ranging from 10 nM to 200 nM. The equilibrium dissociation constant (unit M) of the reaction between antibodies and recombinant purified IL-17 antigens was then calculated from the kinetic rate constants by the following formula: KD=koff/kon. Binding was recorded as a function of time and kinetic rate constants are calculated. In this assay, on-rates as fast as 10⁶ M⁻¹ s⁻¹ and off-rates as slow as 10⁻⁶ s⁻¹ can be measured.

[3] = target: T3, human IL-17A/F (human, UniProt Q16552 24-155; Q96PD4 31-163); assay: as above
T3 construct: Recombinant; biotinylated in the ELISA; also called hIL-17A/F; HuIL-17A/F
T3 sequence (Q16552 24-155, chain 1 of 2): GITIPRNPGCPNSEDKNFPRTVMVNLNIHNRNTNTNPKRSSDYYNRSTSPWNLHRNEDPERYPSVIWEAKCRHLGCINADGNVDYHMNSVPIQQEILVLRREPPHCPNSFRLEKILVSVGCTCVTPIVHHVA
T3 sequence (Q96PD4 31-163, chain 2 of 2): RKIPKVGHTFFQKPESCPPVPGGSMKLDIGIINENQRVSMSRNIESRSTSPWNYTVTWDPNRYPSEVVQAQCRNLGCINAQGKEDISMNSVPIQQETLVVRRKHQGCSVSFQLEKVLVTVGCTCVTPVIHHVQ
Description: as §1

[4] = target: T1, human IL-17A; assay: as above
Description: as §1

[5] = target: T4, cynomolgus monkey IL-17A (cynomolgus monkey, UniProt A0A2K5TTB0 24-155); assay: as above
T4 construct: biotinylated in the ELISA; also called cyno IL-17; Cyno IL-17A
T4 sequence (A0A2K5TTB0 entry or part of it): as the sequence (Q16552 24-155, chain 1 of 2) above, with T3A, P8S, N34S, I77V, N78K, P104R counted along it
Description: as §1

[6] = target: T5, rat IL-17A (rat, UniProt Q61453 18-150, limits assumed); assay: as above
T5 construct: Purified recombinant protein in SPR
T5 sequence (looked up): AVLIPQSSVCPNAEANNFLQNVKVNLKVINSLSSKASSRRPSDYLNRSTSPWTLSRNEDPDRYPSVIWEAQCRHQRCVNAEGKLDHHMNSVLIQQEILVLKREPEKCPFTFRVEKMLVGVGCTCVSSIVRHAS
Description: as §1

[7] = target: T1, human IL-17A; assay: hIL17A ELISA
[8] = target: T1, human IL-17A; assay: cell-based or functional assay; remark: listed apart in the source
[9] = target: T4, cynomolgus monkey IL-17A; assay: cell-based or functional assay
[10] = target: T5, rat IL-17A; assay: cell-based or functional assay
[11] = target: T2, mouse IL-17A; assay: SPR (Biacore 3000), antibody captured by anti-Fc, antigen in solution; remark: listed apart in the source
Description: as §1

[12] = target: T3, human IL-17A/F; assay: as above; remark: listed apart in the source
Description: as §1

[13] = target: T1, human IL-17A; assay: as above; remark: listed apart in the source
Description: as §1

[14] = target: T4, cynomolgus monkey IL-17A; assay: as above; remark: listed apart in the source
Description: as §1

[15] = target: T5, rat IL-17A; assay: as above; remark: listed apart in the source
Description: as §1

T1 sequence (Q16552 24-155): as the sequence (Q16552 24-155, chain 1 of 2) above

B1: ML109-10F7 (antibody, V domains shown)
VH: QVQLQQSGAELVRPGTSVTLSCKASGYIFTDYEIHWVKQTPVHGLEWIGVNDPESGGTFYNQKFDGKAELTADKSSSTAYMELRSLTSEDSGVYYCTRYYRYESFYGMDYWGQGTSITVSS
VL: QIVLTQSPAIMSASPGEKVTMTCSASSSISYIYWFQQKPGTSPKRWIYATFELASGVPARFSGSGSGTSYSLTISSMEAEDAATYYCHQRSSYPWTFGGGSKLEIKR
notes: Hybridoma-derived murine mAb; also called 10F7.3D1
Question: Which results are given for B1?
Answer: Potency (pM), IL-17-driven IL-6 production in HS27 cells [1]: 54 pM; Kd [2]: 0.221 nM; koff [2]: 0.000354 s⁻¹; kon [2]: 1.6e+06 M⁻¹ s⁻¹; Kd [3]: 0.673 nM; koff [3]: 0.000686 s⁻¹; kon [3]: 1.02e+06 M⁻¹ s⁻¹; Kd [4]: 0.0626 nM; koff [4]: 0.000159 s⁻¹; kon [4]: 2.54e+06 M⁻¹ s⁻¹; Kd [5]: 0.0684 nM; koff [5]: 0.000145 s⁻¹; kon [5]: 2.12e+06 M⁻¹ s⁻¹; Kd [6]: 0.197 nM; koff [6]: 0.000623 s⁻¹; kon [6]: 3.17e+06 M⁻¹ s⁻¹

B2: IL17-h5C5.3 (antibody, V domains shown)
VH: EVQLVQSGAEVKKPGASVKVSCKASGYTFTDYEFHWVRQAPGQGLEWIGVIHPGNGGTAYNQNFRDRATLTADKSTSTAYMELSSLRSEDTAVYYCTRFLTYEGYFDYWGQGTLVTVSS
VL: NIVMTQTPKFLLVSPGDRVTITCKASQSVSIDVGWFQQKPGQSPKLLIYHASNRYTGVPDRFTGSGYGTDFTFTVNTVQAEDLAVYFCQQDYSSPYTFGGGTKLELKR
notes: IgG; constant regions not specified
Question: For B2, which EC50 [7] is on record?
Answer: 1.37 nM

Question: And the “Potency (pM), IL-17-driven IL-6 production in HS27 cells” value (“Potency (pM) … in HS27 cells” for short) [8]?
Answer: 5 pM

Question: What about the “Potency (pM) … in HS27 cells” value [9] of the same binder?
Answer: 12 pM

Question: What about the “Potency (pM), IL-17 and TNF-alpha-driven IL-6 production in NIH3T3 cells” value [10] of the same binder?
Answer: 2520 pM

B3: IL17-h5C5.9 (antibody, V domains shown)
VH: B2 VH
VL: DIQMTQSPSSLSASVGDRVTITCKASQSVSIDVGWFQQKPGKSPKLLIYHASNRYTGVPSRFSGSGSGTDFTFTISSLQPEDFATYFCQQDYSSPYTFGQGTKLEIKR
notes: IgG; constant regions not specified; also called h5C5.9 (VH.1b-Vk.1a)
Question: B3 was tested. Which EC50 [7] did it give?
Answer: 0.03 nM

Question: What about the “Potency (pM) … in HS27 cells” value [8] of the same binder?
Answer: 14 pM

Question: And the “Potency (pM) … in HS27 cells” value [9]?
Answer: 19 pM

Question: And the “Potency (pM), IL-17 and TNF-alpha-driven IL-6 production in NIH3T3 cells” value [10]?
Answer: 5680 pM

Question: What about the Kd [11] of the same binder?
Answer: 2.09 nM

Question: And the koff [11]?
Answer: 0.000582 s⁻¹

Question: And the kon [11]?
Answer: 279000 M⁻¹ s⁻¹

Question: And the Kd [12]?
Answer: 1.21 nM

Question: And the koff [12]?
Answer: 0.00115 s⁻¹

Question: What about the kon [12] of the same binder?
Answer: 950000 M⁻¹ s⁻¹

Question: What about the Kd [13] of the same binder?
Answer: 0.44 nM

Question: What about the koff [13] of the same binder?
Answer: 0.000449 s⁻¹

Question: What about the kon [13] of the same binder?
Answer: 1.02e+06 M⁻¹ s⁻¹

Question: What about the Kd [14] of the same binder?
Answer: 0.228 nM

Question: And the koff [14]?
Answer: 0.000239 s⁻¹

Question: What about the kon [14] of the same binder?
Answer: 1.05e+06 M⁻¹ s⁻¹

Question: And the Kd [15]?
Answer: 8.48 nM

Question: And the koff [15]?
Answer: 0.00958 s⁻¹

Question: And the kon [15]?
Answer: 1.13e+06 M⁻¹ s⁻¹

B4: m5C5.hIgG1 (antibody, V domains shown)
VH: QVQLQQSGAELVRPGASVKLSCKALGYTFTDYEFHWVKQTPVHGLEWIGVIHPGNGGTAYNQNFRDKATLTADKSSSTAYMELSSLTSEDSGVYYCTRFLTYEGYFDYWGQGTALTVSS
VL: B2 VL
Question: Which results are given for B4?
Answer: Potency (pM), IL-17-driven IL-6 production in HS27 cells [8]: 11 pM; Potency (pM), IL-17 and TNF-alpha-driven IL-6 production in NIH3T3 cells [10]: 4910 pM
